{
  "source": "the DeepSol protein solubility set",
  "data": [
    {"test": "soluble on expression in E. coli; label from the status in PepcDB or PDB records", "values": [
      {"sequence": "TSNFFCGEPIDYRGITAHRLVGAEPRPPVSGTRYAKVPGVPDEYKTGYRPANLGRSDPDSDKSLMNIAVKNLQVYQQEPKLDKVDEFIERAAADVLGYLRFLTKGERQANLNFKAAFNTLDLSTSCGPFVPGKKIDHVKDGVMDQVLAKHLYKCWSVANSGKALHHIYACGLKDELRPLDKVKEGKKRLLWGCDVGVAVCAAAVFHNICYKLKMVARFGPIAVGVDMTSRDVDVIINNLTSKASDFLCLDYSKWDSTMSPCVVRLAIDILADCCEQTELTKSVVLTLKSHPMTILDAMIVQTKRGLPSGMPFTSVINSICHWLLWSAAVYKSCAEIGLHCSNLYEDAPFYTYGDDGVYAMTPMMVSLLPAIIENLRDYGLSPTAADKTEFIDVCPLNKISFLKRTFELTDIGWVSKLDKSSILRQLEWSKTTSRHMVIEETYDLAKEERGVQLEELQVAAAAHGQEFFNFVCRELERQQAYTQFSVYSYDAARKILADRKRVVSVVPDDEFVNVME", "soluble on expression in E. coli": "soluble"},
      {"sequence": "TTGNEPPVTQIVDKHRIALALGGGAARGWAHIGVLRALDEAGVKIGMIAGTSIGALVGGCYLAGKLDELEEFARSLTMRRIAGLLDLTIGGGGLFGGMRLTKRMQEHLEGLRVENLEHPFIAVATELRTGHEVWIHQGDLVTALRSSYALPGIFEPVQCNGRTLIDGALVNPVPVSVCRAYEQALVVAVNLNYDLFGRSA", "soluble on expression in E. coli": "not soluble"},
      {"sequence": "TTPAPESNRKYIIAVTACPTGIAHTYMAEDALKKKAKEMGVDIKVETNGSEGIKNRLTAEDIARADGVIVAADKKVEMNRFDGKKLVNRPVSDGIRKTEELINLAISGEAPTFHGSDSAA", "soluble on expression in E. coli": "not soluble"},
      {"sequence": "TVLENGSWLIDGDTPVNKLKYVLSVDSFPGEEQGYYLTIAGLIMYILQRIPKTGDHMEFNGLRYEVVDMDGIRIDKVMVTKVPEISKD", "soluble on expression in E. coli": "not soluble"},
      {"sequence": "TVSRENRAEDSRVAAKGVAFGGGETVRIAAEPSVWSNADAVFLDPFFTSANLYDTLSADEGRGRCRRLAEQAASAHGAGKPVLVRVRNVRHVEAALNAGADILYLGGGLMSDLAVLNEAGSLNIPLVLCKDKHHSAEDWLNAAEYVVSRGNRHLILGESGVLGHTKGHPYRLDVESIVKVRQISHLPVIANITGLWSRDMPQEILYGLAKAAGACGIV", "soluble on expression in E. coli": "not soluble"},
      {"sequence": "VADVVPLDHNNRILVSQGLKRMRSGKMRPGIRALFEVARRDWRKAQPFDMGFALGPRINAAGRLDDMSVGIACLLARDDSEAQELAAQLNNLNIERREIEQSMLQDALNDFPETLPSGQMTLVAYRDDFHQGVVGIV", "soluble on expression in E. coli": "not soluble"},
      {"sequence": "VAGPIAVGCYPALGPTILPSMLYAFTAEYPRASVEFREDTQNRLRTQLEGGELDVAIVYDLDLSPEWQTVPLMTREPMVVLGAEHPLAGVDGPVRLADLAEHPMVLLDAPPSTNHAMDVCREAGFAPRVAYRTANFETARAFVGRGLGWTLLLQRPRVDVTYEGLPVVVKPIAEPKPASVAVVVAWHQEATLSRVARAFIRFVTA", "soluble on expression in E. coli": "soluble"},
      {"sequence": "VARADESLQQVVMAYFGVQFKSEQKAIALKAMQHIVQSFSLDNGPQNHDITHHTDNQGYENYIVVGYWRDPGAYCRWFRSTEVSHWWDSDERLNDGIGYFREIVIPRADQFETLYAFKEDLPGVGAVMDDISDDIQEHGYWGSARERF", "soluble on expression in E. coli": "not soluble"},
      {"sequence": "VDNVLVIIGPTASGKTKLAIEIAKRANGEIISADSMQIYKYMDIGTAKPDEEEKEGIKHYLIDEVTPDEEFSVARFKELALKYIDEILSKGKLPIVAGGTGLYINSLIYNLEFSDTICDWELRKKLEQEAKEKGNEYLHNKLKEIDPKAAEKIHMNNVKRVIRAIEVYTYTKKPISVHQEESRKNPPRHNFILIGITMDREKLYDRINKRVDLMLEKGLVKEVEKLVEMGYDKSTIAMQGLGYKEILSYLRGERSLDEAVEILKRDTRRYAKRQMTWFRKIENVYWINKDEFDSDEKIIKNLKYYLATFGIFL", "soluble on expression in E. coli": "soluble"},
      {"sequence": "VEPVPDTHLRGITCLDHENEKVNMYCVSDDQLICALCKLVGRHRDHQVASLNDRFEKLKQTLEMNLTNLVK", "soluble on expression in E. coli": "soluble"},
      {"sequence": "VEYSKDRLEMEIVMAAERLDITEECIRFSSHNKFFIEELNNSSSGSGRKLNFLLQEQLREANTIASKSQNADISQKVVHIKEELEKVREQLQNIE", "soluble on expression in E. coli": "not soluble"},
      {"sequence": "VGEKITKMKEESHKTKQTKTEDPITKETYQARQRTLLQRDYLLVHIEDLLPKQVFAVSVINDYLVCIQAQGLEPMSDVGLLGKHQFYLRTYHYFV", "soluble on expression in E. coli": "not soluble"},
      {"sequence": "VGPEAYGEASHSHSPASGRYIQQMLDQRCQEIAAELCQSGLRKMCVPSSRIVARNAVGITHQNTLQWRCFDTASLLESNQENNGVNCVDDCGHTIPCPGGVHRQNSNHATRHEILSKLVEEGVQRFCSPYQASANKYCNDKFPGTIARRSKGFGNNVEVAWRCYEKASLLYSVYAECASNCGTTWYCPGGRRGTSTELDKRHYTEEEGIRQAIGSVDSPCSEVEVCLPKDENPPLCLDESGQISRT", "soluble on expression in E. coli": "soluble"},
      {"sequence": "VIVYGDYNNDGNVDALDFAGLKKYIMAADHAYVKNLDVNLDNEVNSTDLAILKKYLLGMVSKLPSN", "soluble on expression in E. coli": "soluble"},
      {"sequence": "VKFLTVNDDILSMPQARNFCASAGGYLADDLGDDKNNFYSSIAANTQFWIGLFKNSDGQFYWDRGQGINPDLLNQPITYWANGEPSNDPTRQCVYFDGRSGDKSKVWTTDTCATPRPFICQKHRYDSDHKPNTIGDA", "soluble on expression in E. coli": "soluble"},
      {"sequence": "VKVQPNDYVFRDLANHNQIFVKDKDPKVYNNPYYIDQVQLKDAQQTDLTSIQASFTTLDGVDKTEILKELKVTDKNQNAIQISDITLDTSKSLLIIKGDFNPKQGHFNISYNGNNVTTRQSWEFKDQLYAYSGNLGAVLNQDGSKVEASLWSPSADSVTMIIYDKDNQNRVVATTPLVKNNKGVWQTILDTKLGIKNYTGYYYLYEIKRGKDKVKILDPYAKSLAEWDSNTVNDDIKTAKAAFVNPSQLGPQNLSFAKIANFKGRQDAVIYEAHVRDFTSDQSLDGKLKNQLGTFAAFSEKLDYLQKLGVTHIQLLPVLSYFYVNEMDKSRSTAYTSSDNNYNWGYDPQSYFALSGMYSEKPKDPSARIAELKQLIHDIHKRGMGVILDVVYNHTAKTYLFEDIEPNYYHFMNEDGSPRESFGGGRLGTTHAMSRRVLVDSIKYLTSEFKVDGFRFDMMGDHDAAAIELAYKEAKAINPNMIMIGEGWRTFQGDQGKPVKPADQDWMKSTDTVGVFSDDIRNSLKSGFPNEGTPAFITGGPQSLQGIFKNIKAQPGNFEADSPGDVVQYIAAHDNLTLHDVIAKSINKDPKVAEEDIHRRLRLGNVMILTSQGTAFIHSGQEYGRTKRLLNPDYMTKVSDDKLPNKATLIEAVKEYPYFIHDSYDSSDAINHFDWAAATDNNKHPISTKTQAYTAGLITLRRSTDAFRKLSKAEIDREVSLITEVGQGDIKEKDLVIAYQTIDSKGDIYAVFVNADSKARNVLLGEKYKHLLKGQVIVDADQAGIKPISTPRGVHFEKDSLLIDPLTAIVIKVGKVAPSPKEELQADYPKTQSFKGSKTVEKVNRIANKTSITPVVSNKTDSYLTNEANLEHHHHHH", "soluble on expression in E. coli": "soluble"},
      {"sequence": "VLLLDVTPLSLGIETLGGVFTRLIPRNTTIPTKKSQIFSTAAAGQTSVEIRVFQGERELVRDNKLIGNFTLAGIPPAPKGVPQIEVTFDIDADGIINVSARDKATNKDSSITVAGSSGLSENEIEQMVNDAEKFKSQDEARKQAIETANKADQLANDTENSLKEFEGKVDKAEAQKVRDQITSLKELVARVQGGEEVNAEELKTKTEELQTSSMKLFEQLYKNDSNNNNNNNGNNAESGETKQ", "soluble on expression in E. coli": "soluble"},
      {"sequence": "VLSRIQFVSRFGSNLVHIEGVKGSGKSWLAQRYLEKWCDDADQVLLMCHPNQSIQQQRGIILKQVVRDPLFNESDSVVDSVGRMLAGEKCNLVLAIDDAHLLSSELLSELWLLVQKAQSAPNWQINILLFAEKGKLTQTLSQMSYGQDNKPVDIDINP", "soluble on expression in E. coli": "not soluble"},
      {"sequence": "VMGNEYPDWIWGLSTTLRYKDWTLGISLDGRVGGMAYSRTEQTMWNTGVHPDSDNKWRYDEVVNGKKNYVGQGVKVVSGKVEYDTTGKIVSDTRVFAPNDTQVSYESYIKNYNPWSGGKVYQNVHDCTFLKLRELSLLYTMPKSVCEKIHMKGVTLGLIGQNLLIWMKEFKYADPDVDSDDLNSPSMRYVGFNVKFDL", "soluble on expression in E. coli": "not soluble"},
      {"sequence": "VMNRMATALGGDYFDFISMPDGREVVFIGDVTGHDIQSSVVMSLVYGFLHHCALTVDDPLTMVSQLNRFLVRFADHGTELDHHFSSTLFLGIIDPASLRLEYVNAGHVPPLVLRRNSLHRLASTSPPVGFFAEAEVATGCFGLERGDRLLLYTDGILDASNGTETFGAERLDAFLTATGGSYTRFMDELAAALRDFGAGDPPDDDCSAIVIDI", "soluble on expression in E. coli": "not soluble"},
      {"sequence": "VNPKQPDLGVHVHLVRNVCTVSLDSSGASLDRRGYRTEAGEAPLRETLAAALVEMTGWDGTVPLLDPMCGSGTILVEAALKALNRAPGLIRERFGFQHWPSFDSSLWLRLVTEARQGERTSLESPLLGSDQQADLLSVAAANARRAGVEQHISFTSGDVRGLTPPPAPGIILFNPPYGRRLGDEEGLRVLYRQIGDVLKQRCAGYTAWLLTGGPELAKAVGLRASRRIVLFNGPLECRFLRFDLY", "soluble on expression in E. coli": "not soluble"},
      {"sequence": "VNSVTISVEGMTCNSCVWTIEQQIGKVNGVHHIKVSLEEKNATIIYDPKLQTPKTLQEAIDDMGFDAVIHNIEGR", "soluble on expression in E. coli": "soluble"},
      {"sequence": "VNYRTPAEIMSVANELLTQINPDIAPAMAIRESGREVVNLPLDADLSAVMDSLREEDSQRTIAVISSRRHHESDFYLVDDIKGLEFDHVIVVDPAGIVEESPQGLQDLYVAVTRATQSLTILGE", "soluble on expression in E. coli": "not soluble"},
      {"sequence": "VPKLIDHDRRQQEIAEAVWRVIQREGIGAVSVRDVAAEAGISSGSLRHVFASKTELLAYSMRLVATRVRERAQAHASITDPWQRALAVLDEVLPLDDRRRCEMEVNLALVAESPAHPLLKDIALDAQRQLRGACAAILTGLAQWGLIAPDIDVDAEAMRLHALVDGAAMHVLLGDTDTPDTARRMIAEHLRTLL", "soluble on expression in E. coli": "not soluble"},
      {"sequence": "VSDVPRDIEVVAVTPTSALISWDAPAVTIRYIRLTYGETGGNSPVQEITLPGSKSTYTISGLKPGTDYTVTLYSVTGRGDSPASSKPASINFRTEI", "soluble on expression in E. coli": "soluble"},
      {"sequence": "VSVITSEMKMELRMEGAVNGHKFVITGKGSGQPFEGIQNMDLTVIEGGPLPFAFDILTTVFDYGNRVFVKYPEEIVDYFKQSFPEGYSWERSMSYEDGGICLATNNITMKKDGSNCFVYEIRFDGVNFPANGPVMQRKTVKWEPSTEKMYVRDGVLKGDVNMALLLQGGGHYRCDFRTTYKAKKVVQLPDYHFVDHRIEITSHDKDYNKVKLYEHAKAHSGLPRLAK", "soluble on expression in E. coli": "soluble"},
      {"sequence": "VSYVSVLPATLATAATEVARIGSALSLASAVAAAQTSAVQAAAADEVSAAIAALFSAHGRDFQALSARAAAFHHEFVQALAAGAGSYAVAEIAAASPLQSLIDVFNAPIQAATGRPLIGNGANGQPGTGAPGGPAGG", "soluble on expression in E. coli": "soluble"},
      {"sequence": "VTDVLLCVGNSMMGDDGAGPLLAEKCAAAPKGNWVVIDGGSAPENDIVAIRELRPTRLLIVDATDMGLNPGEIRIIDPDDIAEMFMMTTHNMPLNYLIDQLKEDIGEVIFLGIQPDIVGFYYPMTQPIKDAVETVYQRLEGWEGNGGFAQLAVEEE", "soluble on expression in E. coli": "soluble"}
    ]}
  ]
}
